From patent US20100036111
Read-outs that look alike come from different tables or passages of the source.

What was measured:
[1] = target: Klenow fragment exo- (KF exo-) (UniProt P00582); conditions: n=Pa (pyrrole-2-carbaldehyde); dDsTP insertion; Vmax/KM as printed (KM 26 uM and Vmax 28 imply 1.1e6); 10 mM MgCl2 pH 7.5 37C
[2] = target: Klenow fragment exo- (KF exo-) (UniProt P00582); conditions: n=Pa' (4-propynylpyrrole-2-carbaldehyde); dDsTP insertion Vmax/KM; 10 mM MgCl2 pH 7.5 37C
[3] = target: Klenow fragment exo- (KF exo-) (UniProt P00582); conditions: n=Ds (7-(2-thienyl)-imidazo[4,5-b]pyridine); dPa'TP insertion Vmax/KM; 10 mM MgCl2 pH 7.5 37C

Klenow fragment exo- (KF exo-), sequence (P00582 324-928): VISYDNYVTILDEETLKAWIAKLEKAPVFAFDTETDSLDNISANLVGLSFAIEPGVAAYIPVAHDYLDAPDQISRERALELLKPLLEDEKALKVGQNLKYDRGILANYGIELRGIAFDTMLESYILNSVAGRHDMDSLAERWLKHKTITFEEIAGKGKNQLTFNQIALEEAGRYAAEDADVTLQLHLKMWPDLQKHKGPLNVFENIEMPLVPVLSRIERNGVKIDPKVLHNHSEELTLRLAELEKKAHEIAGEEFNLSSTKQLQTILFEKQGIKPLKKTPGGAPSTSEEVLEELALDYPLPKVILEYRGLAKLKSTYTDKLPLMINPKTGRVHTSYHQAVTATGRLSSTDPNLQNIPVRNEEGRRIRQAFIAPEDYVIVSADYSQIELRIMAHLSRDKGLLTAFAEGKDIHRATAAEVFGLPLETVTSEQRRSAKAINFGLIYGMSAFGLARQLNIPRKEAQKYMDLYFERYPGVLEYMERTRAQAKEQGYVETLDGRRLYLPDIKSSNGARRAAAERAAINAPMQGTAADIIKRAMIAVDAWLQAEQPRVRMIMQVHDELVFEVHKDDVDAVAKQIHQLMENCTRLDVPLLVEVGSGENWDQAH

## TCGAGANAGAAGCTCCCTATAGTGAGTCGTATTAT / ACTCACTATAGGGAGCTTCT [temp35Pa-2/primer]
[1]
  activity: 11000 %/min/M

## TCGAGANAGAAGCTCCCTATAGTGAGTCGTATTAT / ACTCACTATAGGGAGCTTCT [temp35Pa'-2/primer]
[2]
  activity: 880000 %/min/M

## AGCTCTNTCTTCCTCCCTATAGTGAGTCGTATTAT / ACTCACTATAGGGAGGAAGA [temp35Ds-1/primer]
[3]
  activity: 260000 %/min/M
